{"source": "patent US6790824B1", "about": "“Cytokines having neurotrophic activity” (Biopharm Gesellschaft zur biotechnologischen Entwicklung …, priority 1997, dated 2004)", "key": {"[1]": {"system": "embryonic chicken dorsal root ganglia (DRG) neurons", "test": "Survival of dissociated embryonic chick dorsal root ganglia (DRG) neurons, 48 h, counting of surviving neurons", "format": "cell-based", "conditions": "for survival promoting effect of the single factor: factor added alone, dose-response; for survival effect as share of the (maximal) NGF effect: single factor; for survival of DRG neurons in combination with NGF: NGF 10 ng/ml (saturating); for survival of DRG neurons in combination with NT-3: NT-3 10 ng/ml (saturating); for effect on DRG neuron survival when added together with GDF-5: factor at saturating concentration plus GDF-5 20 ng/ml", "method": "Dissociated cultures of embryonic chicken dorsal root ganglia (DRG) were generated as described in details by Krieglstein and Unsicker (Neurochem. Res., 21(7) (1996) 843-850). Briefly, DRGs from white Leghorn chick embryos (day 8) were dissected in Ca^2+-Mg^2+ free Hanks' balanced salt solution. After incubation in 0.08% trypsin for 15 min ganglia were dissociated by trituration. Cells were seeded in polyomithin-laminin coated 96-well microtiter plates (A/2 Costar) at a density of 1,200 cells/well. Growth factors were applied at the time of plating in a final volume of […] Dulbecco's Modified Eagle's Medium supplemented with 0.25% bovine serum albumin, N1 additives and 100 U/ml penicillin. As a positive control, nerve growth factor (NGF) was used at the saturating concentration of 5 ng/ml. After 48 h of incubation at 37° C. in a humidified atmosphere containing 5% CO2, cultures were fixed with 2.5% glutaraldehyde. Neuronal cells were identified by their phase-bright and neurite-bearing morphologies and counted within 30% of the total surface area using phase contrast microscopy. In the first set of experiments we tested the survival promoting effect of several growth factors of the bone morphogenetic protein family.\n(§1) Embryonic chick ciliary (CG), dorsal root (DRG), and sympathetic (SG) ganglia at embryonic day(s) (E) 8, 10, and 12, were dissected, freed from nerve roots and connective tissue and collected in CME. Ganglia were incubated in trypsin (ICN), washed and dissociated by trituration using fire-polished Pasteur pipettes. Cultures were set up in 96-well microtiter plates (Costar, A/2), precoated with poly-L-ornithine and laminin at a density of 1,200-1,500 cells/well in DMEM supplemented with N1 additives, 0.25% BSA, and 0.1% PSN (DME/N1) and incubated at 37° C. in a 5% CO2 incubator.\n(§2) At appropriate times (CG: 24 h, DRG: 48 h, SG: 72 h) cultures were fixed by addition of 2.5% glutardialdehyde in phosphate buffered saline (PBS). Numbers of surviving neurons were determined by direct counting of 30% of the surface area using phase contrast microscopy.\nDissociated cultures of embryonic chicken dorsal root ganglia (DRGs) were generated as described in details by Krieglstein and Unsicker (Dev. Brain. Rees. 93 (1996) 10-17). Briefly, DRGs were dissected in Ca^2+-Mg^2+ free Hank's balanced salt solution (CMF). After incubation in 0.08% trypsin (BioWhittaker) for 15 min, ganglia were dissociated by gentle trituration using fire-polished Pasteur pipettes. Cells in suspension (neuron/non-neuron ratio 1:2) were seeded in polyomithin-laminin coated 96-well microtiter plates (A/2 Costar) at a density of 1,200 cells/well. Growth factors were applied at the time of plating in a final volume of 50 μl Dulbecco's Modified Eagle's Medium supplemented with 0.25% bovine serum albumin, N1 additives (Bottenstein et al., Exp. Cell Res. 125 (1980) 183-190) and 100 U/ml penicillin. As a positive control, nerve growth factor (NGF) was used at the saturating concentration of 10 ng/ml. After 48 h of incubation at 37° C. in a humidified atmosphere containing 5% CO2, cultures were fixed with 2.5% glutaraldehyde in phosphate buffered saline (PBS). Neuronal cells were identified by their phase-bright and neurite-bearing morphologies and counted within 30% of the total surface area using phase contrast microscopy. All experiments were performed in at least triplicate in two independent experiments. Data are presented as mean±SEM. Statistical comparisons were made with student's double t-test, ANOVA and MicrocalOrigin software. Differences were considered statistically significant at *P<0.05, **P<0.01, **P<0.001."}, "[2]": {"system": "chick ciliary ganglionic (CG) neurons", "test": "Survival of embryonic chick ciliary ganglionic (CG) neurons, 24 h, counting of surviving neurons", "format": "cell-based", "conditions": "for CG neuron survival with further addition of TGF-β: TGF-β 2.5 ng/ml, CNTF non-saturating, OSM, LIF, IL-6 at 10 ng/ml", "method": "as §1, §2\nPhosphatidylinositol-specific phospholipase C (PIPLC) is an enzyme that specifically cleaves glycosyl-phosphatidylinositol (GPI) linkages. Embryonic chick ciliary ganglionic neurons (E8) were isolated and seeded as described before. Neurons were incubated for 1 h at 37° C. with 1) 100 mU PIPLC or II) 100 mU PIPLC+2 ng/ml TGFβ or III) without enzyme and then growth factors were added. The number of surviving neurons was determined 24 h later."}}, "note": "“Also recorded” adds a separate entry of the source.", "data": [{"molecule": "GDF-5: bone morphogenetic protein like molecule, member of the TGF-β superfamily (protein, UniProt P43026 382-501, looked up) Growth/differentiation factor …: APLATRQGKRPSKNLKARCSRKALHVNFKDMGWDDWIIAPLEYEAFHCEGLCEFPLRSHLEPTNHAVIQTLMNSMDPESTPPTCCVPTRLSPISILFIDSANNVVYKQYEDMVVESCGCR", "values": [{"measurement": "neuronal numbers, GDF-5 and NT-3 both at saturating concentrations", "setting": "[1]; E8 chick DRG, 48 h", "value": "failed to increase neuronal numbers significantly above the levels of each single factor"}, {"measurement": "survival promoting effect of the single factor", "setting": "[1]; E8 chick DRG, 48 h", "value": "promoted the survival of a very small neuron population"}, {"measurement": "increase in neuronal cell numbers", "setting": "[1]; E8 chick DRG, 48 h, saturating concentration of 20 ng/ml, vs untreated", "value": "approximately two-fold"}, {"measurement": "survival effect as share of the (maximal) NGF effect", "setting": "[1]; E8 chick DRG, 48 h", "value": "about 20%"}, {"measurement": "neuronal cell numbers, GDF-5 added to NGF", "setting": "[1]; GDF-5 20 ng/ml plus NGF 5 ng/ml, E8, 48 h", "value": "significantly increased neuronal cell numbers above values obtained for each single factor"}, {"measurement": "survival of DRG neurons in combination with NGF", "setting": "[1]; E8, 48 h", "value": "significantly increased survival of DRG neurons beyond levels maintained by the single factors"}, {"measurement": "survival of DRG neurons in combination with NT-3", "setting": "[1]; E8, 48 h", "value": "significantly augmented the promoting effect of NT-3"}, {"measurement": "DRG neuron survival with addition of NT-3", "setting": "[1]; various concentrations of GDF-5 plus 2.5 ng/ml NT-3, E8, 48 h", "value": "significantly increased DRG neuron survival above the NT-3 level"}]}, {"molecule": "BMP-4: rh BMP-4, bone morphogenetic protein (protein, UniProt P12644 293-408, looked up) Bone morphogenetic protein 4: SPKHHSQRARKKNKNCRRHSLYVDFSDVGWNDWIVAPPGYQAFYCHGDCPFPLADHLNSTNHAIVQTLVNSVNSSIPKACCVPTELSAISMLYLDEYDKVVLKNYQEMVVEGCGCR", "values": [{"measurement": "survival effect as share of the (maximal) NGF effect", "setting": "[1]; E8 chick DRG, 48 h", "value": "approximately 35%"}, {"measurement": "survival of DRG neurons in combination with NGF", "setting": "[1]; E8, 48 h", "value": "significantly increased survival of DRG neurons beyond levels maintained by the single factors"}]}, {"molecule": "BMP-7: rh BMP-7, bone morphogenetic protein (protein, UniProt P18075 293-431, looked up) Bone morphogenetic protein 7: STGSKQRSQNRSKTPKNQEALRMANVAENSSSDQRQACKKHELYVSFRDLGWQDWIIAPEGYAAYYCEGECAFPLNSYMNATNHAIVQTLVHFINPETVPKPCCAPTQLNAISVLYFDDSSNVILKKYRNMVVRACGCH", "values": [{"measurement": "survival effect as share of the (maximal) NGF effect", "setting": "[1]; E8 chick DRG, 48 h", "value": "approximately 35%"}, {"measurement": "survival of DRG neurons in combination with NT-3", "setting": "[1]; E8, 48 h", "value": "significantly augmented the promoting effect of NT-3"}]}, {"molecule": "BMP-6: rh BMP-6, bone morphogenetic protein (protein, UniProt P22004 375-513, looked up) Bone morphogenetic protein 6: SASSRRRQQSRNRSTQSQDVARVSSASDYNSSELKTACRKHELYVSFQDLGWQDWIIAPKGYAANYCDGECSFPLNAHMNATNHAIVQTLVHLMNPEYVPKPCCAPTKLNAISVLYFDDNSNVILKKYRNMVVRACGCH", "values": [{"measurement": "survival promoting effect of the single factor", "setting": "[1]; E8 chick DRG, 48 h", "value": "significant effect"}]}, {"molecule": "BMP-11: rh BMP-11, bone morphogenetic protein (protein, UniProt O95390 299-407, looked up) Growth/differentiation factor …: NLGLDCDEHSSESRCCRYPLTVDFEAFGWDWIIAPKRYKANYCSGQCEYMFMQKYPHTHLVQQANPRGSAGPCCTPTKMSPINMLYFNDKQQIIYGKIPGMVVDRCGCS", "values": [{"measurement": "survival promoting effect of the single factor", "setting": "[1]; E8 chick DRG, 48 h", "value": "significant effect"}]}, {"molecule": "BMP-12: rh BMP-12, bone morphogenetic protein (protein, UniProt Q7Z4P5 322-450, looked up) Growth/differentiation factor …: TALAGTRTAQGSGGGAGRGHGRRGRSRCSRKPLHVDFKELGWDDWIIAPLDYEAYHCEGLCDFPLRSHLEPTNHAIIQTLLNSMAPDAAPASCCVPARLSPISILYIDAANNVVYKQYEDMVVEACGCR", "values": [{"measurement": "survival promoting effect of the single factor", "setting": "[1]; E8 chick DRG, 48 h", "value": "significant effect; also recorded: promoted the survival of a very small neuron population"}, {"measurement": "survival of DRG neurons in combination with NGF", "setting": "[1]; E8, 48 h", "value": "significantly increased survival of DRG neurons beyond levels maintained by the single factors"}, {"measurement": "survival of DRG neurons in combination with NT-3", "setting": "[1]; E8, 48 h", "value": "significantly augmented the promoting effect of NT-3"}]}, {"molecule": "brain-derived neurotrophic factor (protein, UniProt P23560 19-247, looked up) Neurotrophic factor BDNF …: APMKEANIRGQGGLAYPGVRTHGTLESVNGPKAGSRGLTSLADTFEHVIEELLDEDQKVRPNEENNKDADLYTSRVMLSSQVPLEPPLLFLLEEYKNYLDAANMSMRVRRHSDPARRGELSVCDSISEWVTAADKKTAVDMSGGTVTVLEKVPVSKGQLKQYFYETKCNPMGYTKEGCRGIDKRHWNSQCRTTQSYVRALTMDSKKRIGWRFIRIDTSCVCTLTIKRGR", "values": [{"measurement": "effect on DRG neuron survival when added together with GDF-5", "setting": "[1]; E8, 48 h", "value": "synergistic or additive effects"}]}, {"molecule": "neurotrophin-4 (protein, UniProt P34130 81-210, looked up) Neurotrophin-4: GVSETAPASRRGELAVCDAVSGWVTDRRTAVDLRGREVEVLGEVPAAGGSPLRQYFFETRCKADNAEEGGPGAGGGGCRGVDRRHWVSECKAKQSYVRALTADAQGRVGWRWIRIDTACVCTLLSRTGRA", "values": [{"measurement": "effect on DRG neuron survival when added together with GDF-5", "setting": "[1]; E8, 48 h", "value": "synergistic or additive effects"}]}, {"molecule": "oncostatin M (protein, UniProt P13725 26-221, looked up) Oncostatin-M: AAIGSCSKEYRVLLGQLQKQTDLMQDTSRLLDPYIRIQGLDVPKLREHCRERPGAFPSEETLRGLGRRGFLQTLNATLGCVLHRLADLEQRLPKAQDLERSGLNIEDLEKLQMARPNILGLRNNIYCMAQLLDNSDTAEPTKAGRGASQPPTPTPASDAFQRKLEGCRFLHGYHRFMHSVGRVFSKWGESPNRSRR", "values": [{"measurement": "CG neuron survival with further addition of TGF-β", "setting": "[2]", "value": "did not increase the effects of these cytokines beyond background levels"}, {"measurement": "support of CG neuron survival by the single cytokine", "setting": "[2]; at 10 ng/ml, without TGF-β", "value": "did not support CG neurons"}]}, {"molecule": "CNTF: recombinant rat (rr) CNTF, established neurotrophic factor for CG neurons (protein, UniProt P20294 1-200, looked up) Ciliary neurotrophic factor: MAFAEQTPLTLHRRDLCSRSIWLARKIRSDLTALMESYVKHQGLNKNINLDSVDGVPVASTDRWSEMTEAERLQENLQAYRTFQGMLTKLLEDQRVHFTPTEGDFHQAIHTLMLQVSAFAYQLEELMVLLEQKIPENEADGMPATVGDGGLFEKKLWGLKVLQELSQWTVRSIHDLRVISSHQMGISALESHYGAKDKQM", "values": [{"measurement": "CG neuron survival with further addition of TGF-β", "setting": "[2]", "value": "clearly augmented the efficacy of a non-saturating concentration of CNTF"}]}]}
